Data on 1 molecule can be found in paper PMC2807882, “Conservation of DNA-binding specificity and oligomerisation properties within the p53 family”.

Targets include Mmp53 (Mus musculus, UniProt P02340 1-390); Hsp53 (Homo sapiens, UniProt P04637 1-393); Xlp53 (Xenopus laevis, UniProt Q7T1D0 1-362).
What all share (assay): fluorescence anisotropy direct titration; 25 mM sodium phosphate (purification buffer pH 7.2), 225 mM NaCl, 10% v/v glycerol, 5 mM DTT, 0.2 mg/mL BSA, 22 C
Common to all, as to settings: protein: recombinant; tags: N-terminal 6xHis-lipoyl-TEV tag, cleaved; chain copies: 4; label: 5'-Alexa488

In a further data set the target is T1, Drp53 (Danio rerio, UniProt P79734 1-373).
T1 sequence: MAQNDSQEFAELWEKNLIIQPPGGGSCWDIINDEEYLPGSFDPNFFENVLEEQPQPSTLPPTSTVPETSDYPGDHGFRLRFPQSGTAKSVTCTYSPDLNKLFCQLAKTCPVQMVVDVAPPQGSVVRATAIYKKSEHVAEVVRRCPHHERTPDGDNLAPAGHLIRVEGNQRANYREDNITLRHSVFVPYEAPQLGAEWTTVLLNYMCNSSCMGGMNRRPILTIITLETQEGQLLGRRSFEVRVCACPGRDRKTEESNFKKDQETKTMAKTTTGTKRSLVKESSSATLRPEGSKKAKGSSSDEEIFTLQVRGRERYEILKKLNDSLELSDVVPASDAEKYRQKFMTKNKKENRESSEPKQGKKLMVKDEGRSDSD

The target in a further data set is T2, ΔNp63α (Homo sapiens, UniProt Q9H3D4-2 1-586).
T2 sequence: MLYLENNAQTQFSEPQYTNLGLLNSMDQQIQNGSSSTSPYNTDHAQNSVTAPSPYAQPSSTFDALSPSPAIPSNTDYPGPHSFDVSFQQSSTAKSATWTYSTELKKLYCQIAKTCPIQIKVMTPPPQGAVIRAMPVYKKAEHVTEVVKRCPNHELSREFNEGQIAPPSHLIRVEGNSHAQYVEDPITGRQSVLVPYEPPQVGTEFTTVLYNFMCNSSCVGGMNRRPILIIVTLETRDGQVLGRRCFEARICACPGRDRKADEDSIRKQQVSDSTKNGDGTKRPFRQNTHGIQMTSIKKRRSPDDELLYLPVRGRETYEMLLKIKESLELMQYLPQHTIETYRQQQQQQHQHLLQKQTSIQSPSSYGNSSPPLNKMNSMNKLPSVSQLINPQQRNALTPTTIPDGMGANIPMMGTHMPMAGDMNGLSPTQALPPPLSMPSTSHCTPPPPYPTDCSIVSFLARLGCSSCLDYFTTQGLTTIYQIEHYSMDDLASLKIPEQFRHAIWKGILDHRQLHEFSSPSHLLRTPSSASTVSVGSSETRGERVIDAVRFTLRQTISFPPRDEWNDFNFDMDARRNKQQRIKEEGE

Another data set concerns the target T3, Dmp53 (Drosophila melanogaster, UniProt Q9N6D8 1-385).
T3 sequence: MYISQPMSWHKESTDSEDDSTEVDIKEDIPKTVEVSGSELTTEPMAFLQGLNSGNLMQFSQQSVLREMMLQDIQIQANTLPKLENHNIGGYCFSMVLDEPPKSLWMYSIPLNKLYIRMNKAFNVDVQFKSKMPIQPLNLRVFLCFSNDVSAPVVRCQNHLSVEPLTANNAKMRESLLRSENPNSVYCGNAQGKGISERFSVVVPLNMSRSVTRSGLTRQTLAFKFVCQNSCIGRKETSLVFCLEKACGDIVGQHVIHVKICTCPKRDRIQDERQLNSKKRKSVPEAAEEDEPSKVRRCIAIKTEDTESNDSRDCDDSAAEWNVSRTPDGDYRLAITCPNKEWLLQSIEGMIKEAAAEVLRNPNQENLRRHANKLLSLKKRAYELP

In the next data set the target is T4, ΔNp63β (Homo sapiens, UniProt Q9H3D4-4 1-461).
T4 sequence: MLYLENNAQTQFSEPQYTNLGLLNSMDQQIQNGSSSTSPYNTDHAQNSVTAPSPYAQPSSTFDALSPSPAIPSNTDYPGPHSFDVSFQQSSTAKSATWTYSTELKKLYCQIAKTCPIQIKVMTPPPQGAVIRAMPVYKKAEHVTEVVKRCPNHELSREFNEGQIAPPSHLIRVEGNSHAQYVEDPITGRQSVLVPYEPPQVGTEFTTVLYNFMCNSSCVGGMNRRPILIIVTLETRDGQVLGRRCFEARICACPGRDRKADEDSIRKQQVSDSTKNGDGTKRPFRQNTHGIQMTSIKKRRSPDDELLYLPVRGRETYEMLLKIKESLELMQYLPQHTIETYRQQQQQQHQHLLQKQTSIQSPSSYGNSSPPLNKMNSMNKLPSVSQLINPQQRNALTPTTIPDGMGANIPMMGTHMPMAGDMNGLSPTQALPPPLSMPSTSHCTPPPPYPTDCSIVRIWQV

Chain of Hsp53 (P04637 whole entry): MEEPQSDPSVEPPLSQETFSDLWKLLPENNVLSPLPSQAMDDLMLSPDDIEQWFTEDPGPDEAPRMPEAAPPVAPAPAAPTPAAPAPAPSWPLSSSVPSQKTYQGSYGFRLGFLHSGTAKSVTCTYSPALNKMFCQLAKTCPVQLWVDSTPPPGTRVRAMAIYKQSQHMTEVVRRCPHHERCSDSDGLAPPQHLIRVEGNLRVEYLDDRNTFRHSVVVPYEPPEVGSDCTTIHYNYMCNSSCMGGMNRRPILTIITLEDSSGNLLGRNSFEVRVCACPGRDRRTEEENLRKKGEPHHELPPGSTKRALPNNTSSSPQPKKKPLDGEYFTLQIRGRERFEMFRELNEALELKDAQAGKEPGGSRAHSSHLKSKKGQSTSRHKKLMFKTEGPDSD
Chain of Mmp53 (P02340 whole entry): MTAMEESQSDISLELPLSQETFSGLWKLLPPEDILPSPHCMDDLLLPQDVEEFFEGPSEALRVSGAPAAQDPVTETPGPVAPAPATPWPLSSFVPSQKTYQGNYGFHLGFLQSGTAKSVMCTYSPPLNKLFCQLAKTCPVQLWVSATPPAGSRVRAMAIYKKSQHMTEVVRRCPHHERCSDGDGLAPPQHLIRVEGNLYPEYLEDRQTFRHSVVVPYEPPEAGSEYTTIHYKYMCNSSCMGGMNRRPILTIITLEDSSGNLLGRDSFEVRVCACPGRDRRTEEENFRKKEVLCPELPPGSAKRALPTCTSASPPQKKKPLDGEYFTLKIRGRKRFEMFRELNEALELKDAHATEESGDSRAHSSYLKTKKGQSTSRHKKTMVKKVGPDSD
Chain of Xlp53 (Q7T1D0 entry or part of it): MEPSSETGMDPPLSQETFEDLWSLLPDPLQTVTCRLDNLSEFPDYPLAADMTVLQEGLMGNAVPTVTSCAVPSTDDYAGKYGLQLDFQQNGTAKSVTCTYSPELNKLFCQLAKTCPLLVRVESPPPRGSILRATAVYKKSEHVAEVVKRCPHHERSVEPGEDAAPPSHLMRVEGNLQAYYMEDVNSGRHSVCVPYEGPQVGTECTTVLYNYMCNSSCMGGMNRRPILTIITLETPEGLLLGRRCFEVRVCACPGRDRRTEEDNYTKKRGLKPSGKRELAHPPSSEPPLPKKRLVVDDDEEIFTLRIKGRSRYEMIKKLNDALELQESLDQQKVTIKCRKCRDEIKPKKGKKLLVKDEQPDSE

B1: Ref_Alexa488 (dsDNA)
DNA 1: GGACATGTCCGGACATGTCC
DNA 2: GGACATGTCCGGACATGTCC
On to B1, for which the equilibrium dissociation constant (Kd) amounted to 63.1 nM with Drp53; 95.5 nM with Mmp53; 75.9 nM with ΔNp63α; 56.2 nM in the data set with Hsp53; 52.5 nM with Dmp53; 47.9 nM with Xlp53. For the same molecule, in the data set with ΔNp63β, the Kd was determined as 74.1 nM.
